Test results taken from patent US20140274782A1 (Stanford University, published 2014).

Columns and labels:
[1] = target: cDNA clone IMAGE:4623222 product, G9a-methylated (human); assay: ProtoArray methylated with G9a SET domain
Experimental: (§1) Briefly, a ProtoArray (Invitrogen, version 5.0) was incubated overnight with 50 μg of GST or recombinant GSTtagged G9a SET domain and the cofactor SAM.
(§2) Arrays were analyzed using GenePix Pro 6.1 software (Molecular Devices) and feature values were assigned to proteins using the array list provided by Invitrogen. We designated the following criteria for “hits”: GST array signal-to-noise ratio (SNR) less than or equal to 1.5, G9a array SNR greater than or equal to 10, and a difference between the G9a array SNR and the GST array SNR of greater than or equal to 12. Hits were individually visually validated. Proteins were removed from the list of potential substrates if irregular array features appeared to interfere with the array spots or SNR calculations.
(§3) Protein arrays bearing almost 9500 recombinant human proteins were methylated using GST-tagged recombinant G9a SET domain or GST alone as a control as shown in FIG. 4. […] Results were filtered for proteins scoring a GST array signal-to-noise ratio (SNR) less than or equal to 1.5, a G9a array SNR greater to or equal to 10, and a difference between the G9a and GST SNRs of greater than or equal to 12. Subsequent proteins were individually inspected for irregular array features.

[2] = target: MGC4473, G9a-methylated (human); assay: ProtoArray methylated with G9a SET domain
Experimental: as §1, §2, §3

[3] = target: LOC400500, G9a-methylated (human); assay: ProtoArray methylated with G9a SET domain
Experimental: as §1, §2, §3

[4] = target: LOC145788, G9a-methylated (human); assay: ProtoArray methylated with G9a SET domain
Experimental: as §1, §2, §3

[5] = target: T1, CLDN15-claudin 15 (CLDN15) (human, UniProt P56746 1-228); assay: ProtoArray, GST-treated control array;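 further: human protein microarray (about 9500 recombinant proteins) incubated overnight with GST alone plus SAM cofactor as the negative control for G9a SET domain methylation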
T1 sequence (looked up): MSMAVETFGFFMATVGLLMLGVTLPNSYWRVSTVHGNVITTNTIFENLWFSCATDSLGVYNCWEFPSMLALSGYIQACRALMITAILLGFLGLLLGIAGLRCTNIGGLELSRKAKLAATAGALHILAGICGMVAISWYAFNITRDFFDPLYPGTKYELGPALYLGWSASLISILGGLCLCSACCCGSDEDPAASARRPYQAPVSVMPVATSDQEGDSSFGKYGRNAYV

[6] = target: T2, ZBP1-Z-DNA binding protein 1 (ZBP1) (human, UniProt Q9H171 1-429, limits assumed); assay: ProtoArray, GST-treated control array;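 further: human protein microarray (about 9500 recombinant proteins) incubated overnight with GST alone plus SAM cofactor as the negative control for G9a SET domain methylation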
T2 sequence (looked up): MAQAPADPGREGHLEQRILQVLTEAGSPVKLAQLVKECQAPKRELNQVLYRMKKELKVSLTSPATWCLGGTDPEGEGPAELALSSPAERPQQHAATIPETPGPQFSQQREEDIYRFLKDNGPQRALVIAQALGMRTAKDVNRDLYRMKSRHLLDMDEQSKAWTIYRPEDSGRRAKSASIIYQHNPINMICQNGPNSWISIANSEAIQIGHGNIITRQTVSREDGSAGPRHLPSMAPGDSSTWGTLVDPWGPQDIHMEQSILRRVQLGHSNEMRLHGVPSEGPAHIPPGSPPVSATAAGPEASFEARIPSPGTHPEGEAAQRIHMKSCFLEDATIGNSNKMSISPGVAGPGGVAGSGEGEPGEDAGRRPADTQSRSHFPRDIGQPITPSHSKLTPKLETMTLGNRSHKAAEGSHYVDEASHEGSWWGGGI

[7] = target: T3, SH3YL1-SH3 domain containing, Ysc84-like 1 (S. cerevisiae), mRNA (cDNA clone MGC:12275 IMAGE:3996120), … (human, UniProt Q96HL8 1-342, limits assumed); assay: ProtoArray, GST-treated control array;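 further: human protein microarray (about 9500 recombinant proteins) incubated overnight with GST alone plus SAM cofactor as the negative control for G9a SET domain methylation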
T3 sequence (looked up): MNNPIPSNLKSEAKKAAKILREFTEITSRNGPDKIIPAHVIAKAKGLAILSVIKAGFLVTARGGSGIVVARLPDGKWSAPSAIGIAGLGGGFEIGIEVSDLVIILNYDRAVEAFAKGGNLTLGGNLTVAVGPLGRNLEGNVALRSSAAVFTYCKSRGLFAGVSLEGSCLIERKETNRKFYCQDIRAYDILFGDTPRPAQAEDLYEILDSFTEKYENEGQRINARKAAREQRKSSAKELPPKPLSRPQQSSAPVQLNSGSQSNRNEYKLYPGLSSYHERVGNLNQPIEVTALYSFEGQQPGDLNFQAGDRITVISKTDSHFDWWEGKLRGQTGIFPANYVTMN

[8] = target: T4, UBE2S-Ubiquitin-conjugating enzyme E2 S (human, UniProt Q16763 1-222); assay: ProtoArray, GST-treated control array;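 further: human protein microarray (about 9500 recombinant proteins) incubated overnight with GST alone plus SAM cofactor as the negative control for G9a SET domain methylation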
T4 sequence (looked up): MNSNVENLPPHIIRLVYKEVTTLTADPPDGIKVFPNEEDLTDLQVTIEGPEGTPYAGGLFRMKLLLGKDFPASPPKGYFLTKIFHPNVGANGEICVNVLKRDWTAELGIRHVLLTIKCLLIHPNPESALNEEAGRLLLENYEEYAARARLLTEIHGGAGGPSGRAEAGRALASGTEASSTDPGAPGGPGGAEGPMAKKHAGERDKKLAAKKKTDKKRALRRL

[9] = target: T5, CDKL5-Cyclin-dependent kinase-like 5 (human, UniProt O76039-1 1-1030, limits assumed); assay: ProtoArray, GST-treated control array
T5 sequence (looked up): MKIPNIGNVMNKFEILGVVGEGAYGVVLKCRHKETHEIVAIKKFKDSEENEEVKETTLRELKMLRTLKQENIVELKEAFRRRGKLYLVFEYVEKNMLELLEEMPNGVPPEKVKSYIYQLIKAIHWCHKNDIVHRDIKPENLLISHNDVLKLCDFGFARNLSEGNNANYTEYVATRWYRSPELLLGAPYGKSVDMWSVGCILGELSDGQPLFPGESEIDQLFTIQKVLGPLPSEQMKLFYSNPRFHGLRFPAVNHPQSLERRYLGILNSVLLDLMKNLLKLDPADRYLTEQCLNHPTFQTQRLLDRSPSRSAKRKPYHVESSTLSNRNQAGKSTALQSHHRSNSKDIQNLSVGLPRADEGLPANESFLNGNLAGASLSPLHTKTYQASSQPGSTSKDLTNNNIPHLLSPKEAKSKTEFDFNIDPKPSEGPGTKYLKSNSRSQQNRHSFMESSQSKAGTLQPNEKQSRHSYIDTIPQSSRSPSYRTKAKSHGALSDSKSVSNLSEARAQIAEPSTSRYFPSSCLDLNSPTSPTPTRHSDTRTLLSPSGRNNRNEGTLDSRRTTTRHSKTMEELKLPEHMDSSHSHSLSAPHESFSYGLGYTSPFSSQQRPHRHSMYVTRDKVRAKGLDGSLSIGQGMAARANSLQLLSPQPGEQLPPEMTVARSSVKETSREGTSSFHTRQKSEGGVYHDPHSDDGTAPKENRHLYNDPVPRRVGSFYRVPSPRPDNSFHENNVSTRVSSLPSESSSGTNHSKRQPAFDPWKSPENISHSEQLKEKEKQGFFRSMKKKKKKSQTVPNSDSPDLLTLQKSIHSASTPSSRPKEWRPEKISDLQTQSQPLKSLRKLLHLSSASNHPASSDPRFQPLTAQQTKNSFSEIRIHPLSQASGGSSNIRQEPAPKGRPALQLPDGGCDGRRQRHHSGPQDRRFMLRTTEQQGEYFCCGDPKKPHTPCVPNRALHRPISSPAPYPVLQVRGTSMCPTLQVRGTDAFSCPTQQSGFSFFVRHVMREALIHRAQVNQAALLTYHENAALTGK

[10] = target: FTL-ferritin, light polypeptide (FTL) (human, UniProt P02792 1-175); assay: ProtoArray, GST-treated control array
FTL-ferritin, light polypeptide (FTL), sequence (P02792 whole entry): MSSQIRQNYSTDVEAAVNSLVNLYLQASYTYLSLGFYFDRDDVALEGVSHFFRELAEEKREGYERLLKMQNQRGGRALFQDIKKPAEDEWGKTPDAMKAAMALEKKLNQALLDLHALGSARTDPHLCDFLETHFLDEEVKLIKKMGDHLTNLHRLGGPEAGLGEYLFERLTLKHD

B1: 3× Flag-3×MBT (designed binder)
chain: EEWSSSQPATGEKKECWSWESYLEEQKAITAPVSLFQDSQAVTHNKNGFKLGMKLEGIDPQHPSMYFILTVAEVCGYRLRLHFDGYSECHDFWVNANSPDIHPAGWFEKTGHKLQPPKGYKEEEFSWSQYLRSTRAQAAPKHLFVSQSHSPPPLGFQVGMKLEAVDRMNPSLVCVASVTDVVDSRFLVHFDNWDDTYDYWCDPSSPYIHPVGWCQKQGKPLTPPQDYPDPDNFCWEKYLEETGASAVPTWAFKVRPPHSFLVNMKLEAVDRRNPALIRVASVEDVEDHRIKIHFDGWSHGYDFWIDADHPDIHPAGWCSKTGHPLQPPLGPREPSSASPGG
notes: also called Flag-tagged 3×MBT; 3xFlag-3xMBT; not shown: made by PreScission cleavage of GST-3× Flag-3×MBT
G9a Average SNR [1]: 18.8 | G9a Average SNR [2]: 21.7 | G9a Average SNR [3]: 29 | G9a Average SNR [4]: 14.1 | GST Average SNR [5]: -0.296 | GST Average SNR [6]: 0.628 | GST Average SNR [7]: 0.26 | GST Average SNR [8]: 0.283 | GST Average SNR [9]: 1.43 | GST Average SNR [10]: 0.717
